# From patent publication US20260001928A1 (CORTERIA PHARMACEUTICALS, priority 2022, published 2026)
# *1 amine or outer side, *2 acyl side, *3 side chain or, on linkers, in order; H or OH if unused. Side-chain parts run from the residue outwards. [ ]: non-standard residue; d: D form. The star is where a group is joined. C18 diacid = O=C(O)CCCCCCCCCCCCCCCCC(=O)*; C16 diacid = O=C(O)CCCCCCCCCCCCCCC(=O)*; γGlu = O=C(O)[C@H](CCC(=O)[*:2])N[*:1]; αMeK = C[C@](N)(CCCCN)C(=O)O; Nva = CCC[C@H](N)C(=O)O; Abu = CC[C@H](N)C(=O)O; Dap = NC[C@H](N)C(=O)O; AEEA = NCCOCCOCC(=O)O; Aib = CC(C)(N)C(=O)O
# B1: SEQ ID NO 55 (peptide)
# peptide: Ac-IVLSLD[dV]PIKLK([γGlu-C16 diacid])KILLEQEKQKKQREQAETN[Dap]QILAQV-NH2
# SMILES: CC[C@H](C)[C@H](NC(C)=O)C(=O)N[C@H](C(=O)N[C@@H](CC(C)C)C(=O)N[C@@H](CO)C(=O)N[C@@H](CC(C)C)C(=O)N[C@@H](CC(=O)O)C(=O)N[C@@H](C(=O)N1CCC[C@H]1C(=O)N[C@H](C(=O)N[C@@H](CCCCN)C(=O)N[C@@H](CC(C)C)C(=O)N[C@@H](CCCCNC(=O)CC[C@H](NC(=O)CCCCCCCCCCCCCCC(=O)O)C(=O)O)C(=O)N[C@@H](CCCCN)C(=O)N[C@H](C(=O)N[C@@H](CC(C)C)C(=O)N[C@@H](CC(C)C)C(=O)N[C@@H](CCC(=O)O)C(=O)N[C@@H](CCC(N)=O)C(=O)N[C@@H](CCC(=O)O)C(=O)N[C@@H](CCCCN)C(=O)N[C@@H](CCC(N)=O)C(=O)N[C@@H](CCCCN)C(=O)N[C@@H](CCCCN)C(=O)N[C@@H](CCC(N)=O)C(=O)N[C@@H](CCCNC(=N)N)C(=O)N[C@@H](CCC(=O)O)C(=O)N[C@@H](CCC(N)=O)C(=O)N[C@@H](C)C(=O)N[C@@H](CCC(=O)O)C(=O)N[C@H](C(=O)N[C@@H](CC(N)=O)C(=O)N[C@@H](CN)C(=O)N[C@@H](CCC(N)=O)C(=O)N[C@H](C(=O)N[C@@H](CC(C)C)C(=O)N[C@@H](C)C(=O)N[C@@H](CCC(N)=O)C(=O)N[C@H](C(N)=O)C(C)C)[C@@H](C)CC)[C@@H](C)O)[C@@H](C)CC)[C@@H](C)CC)C(C)C)C(C)C
# B2: SEQ ID NO 107 (peptide)
# peptide: Ac-IVLSLD[dV]PIKLK([AEEA-AEEA-γGlu-C18 diacid])KILLEQEKQKKQREQAETN[Dap]QILAQV-NH2
# SMILES: CC[C@H](C)[C@H](NC(C)=O)C(=O)N[C@H](C(=O)N[C@@H](CC(C)C)C(=O)N[C@@H](CO)C(=O)N[C@@H](CC(C)C)C(=O)N[C@@H](CC(=O)O)C(=O)N[C@@H](C(=O)N1CCC[C@H]1C(=O)N[C@H](C(=O)N[C@@H](CCCCN)C(=O)N[C@@H](CC(C)C)C(=O)N[C@@H](CCCCNC(=O)COCCOCCNC(=O)COCCOCCNC(=O)CC[C@H](NC(=O)CCCCCCCCCCCCCCCCC(=O)O)C(=O)O)C(=O)N[C@@H](CCCCN)C(=O)N[C@H](C(=O)N[C@@H](CC(C)C)C(=O)N[C@@H](CC(C)C)C(=O)N[C@@H](CCC(=O)O)C(=O)N[C@@H](CCC(N)=O)C(=O)N[C@@H](CCC(=O)O)C(=O)N[C@@H](CCCCN)C(=O)N[C@@H](CCC(N)=O)C(=O)N[C@@H](CCCCN)C(=O)N[C@@H](CCCCN)C(=O)N[C@@H](CCC(N)=O)C(=O)N[C@@H](CCCNC(=N)N)C(=O)N[C@@H](CCC(=O)O)C(=O)N[C@@H](CCC(N)=O)C(=O)N[C@@H](C)C(=O)N[C@@H](CCC(=O)O)C(=O)N[C@H](C(=O)N[C@@H](CC(N)=O)C(=O)N[C@@H](CN)C(=O)N[C@@H](CCC(N)=O)C(=O)N[C@H](C(=O)N[C@@H](CC(C)C)C(=O)N[C@@H](C)C(=O)N[C@@H](CCC(N)=O)C(=O)N[C@H](C(N)=O)C(C)C)[C@@H](C)CC)[C@@H](C)O)[C@@H](C)CC)[C@@H](C)CC)C(C)C)C(C)C
# B3: SEQ ID NO 108 (peptide)
# peptide: Ac-IVLSLD[dV]PIKLK([AEEA-AEEA-γGlu-C18 diacid])KILLEQEKQKKQREQAETNEQILAQV-NH2
# SMILES: CC[C@H](C)[C@H](NC(C)=O)C(=O)N[C@H](C(=O)N[C@@H](CC(C)C)C(=O)N[C@@H](CO)C(=O)N[C@@H](CC(C)C)C(=O)N[C@@H](CC(=O)O)C(=O)N[C@@H](C(=O)N1CCC[C@H]1C(=O)N[C@H](C(=O)N[C@@H](CCCCN)C(=O)N[C@@H](CC(C)C)C(=O)N[C@@H](CCCCNC(=O)COCCOCCNC(=O)COCCOCCNC(=O)CC[C@H](NC(=O)CCCCCCCCCCCCCCCCC(=O)O)C(=O)O)C(=O)N[C@@H](CCCCN)C(=O)N[C@H](C(=O)N[C@@H](CC(C)C)C(=O)N[C@@H](CC(C)C)C(=O)N[C@@H](CCC(=O)O)C(=O)N[C@@H](CCC(N)=O)C(=O)N[C@@H](CCC(=O)O)C(=O)N[C@@H](CCCCN)C(=O)N[C@@H](CCC(N)=O)C(=O)N[C@@H](CCCCN)C(=O)N[C@@H](CCCCN)C(=O)N[C@@H](CCC(N)=O)C(=O)N[C@@H](CCCNC(=N)N)C(=O)N[C@@H](CCC(=O)O)C(=O)N[C@@H](CCC(N)=O)C(=O)N[C@@H](C)C(=O)N[C@@H](CCC(=O)O)C(=O)N[C@H](C(=O)N[C@@H](CC(N)=O)C(=O)N[C@@H](CCC(=O)O)C(=O)N[C@@H](CCC(N)=O)C(=O)N[C@H](C(=O)N[C@@H](CC(C)C)C(=O)N[C@@H](C)C(=O)N[C@@H](CCC(N)=O)C(=O)N[C@H](C(N)=O)C(C)C)[C@@H](C)CC)[C@@H](C)O)[C@@H](C)CC)[C@@H](C)CC)C(C)C)C(C)C
# B4: SEQ ID NO 41 (peptide)
# peptide: Ac-IVLSLD[dV]PIKLK([γGlu-γGlu-C16 diacid])KILLEQEKQKKQREQAETN[Aib]QILAQV-NH2
# SMILES: CC[C@H](C)[C@H](NC(C)=O)C(=O)N[C@H](C(=O)N[C@@H](CC(C)C)C(=O)N[C@@H](CO)C(=O)N[C@@H](CC(C)C)C(=O)N[C@@H](CC(=O)O)C(=O)N[C@@H](C(=O)N1CCC[C@H]1C(=O)N[C@H](C(=O)N[C@@H](CCCCN)C(=O)N[C@@H](CC(C)C)C(=O)N[C@@H](CCCCNC(=O)CC[C@H](NC(=O)CC[C@H](NC(=O)CCCCCCCCCCCCCCC(=O)O)C(=O)O)C(=O)O)C(=O)N[C@@H](CCCCN)C(=O)N[C@H](C(=O)N[C@@H](CC(C)C)C(=O)N[C@@H](CC(C)C)C(=O)N[C@@H](CCC(=O)O)C(=O)N[C@@H](CCC(N)=O)C(=O)N[C@@H](CCC(=O)O)C(=O)N[C@@H](CCCCN)C(=O)N[C@@H](CCC(N)=O)C(=O)N[C@@H](CCCCN)C(=O)N[C@@H](CCCCN)C(=O)N[C@@H](CCC(N)=O)C(=O)N[C@@H](CCCNC(=N)N)C(=O)N[C@@H](CCC(=O)O)C(=O)N[C@@H](CCC(N)=O)C(=O)N[C@@H](C)C(=O)N[C@@H](CCC(=O)O)C(=O)N[C@H](C(=O)N[C@@H](CC(N)=O)C(=O)NC(C)(C)C(=O)N[C@@H](CCC(N)=O)C(=O)N[C@H](C(=O)N[C@@H](CC(C)C)C(=O)N[C@@H](C)C(=O)N[C@@H](CCC(N)=O)C(=O)N[C@H](C(N)=O)C(C)C)[C@@H](C)CC)[C@@H](C)O)[C@@H](C)CC)[C@@H](C)CC)C(C)C)C(C)C
# B5: SEQ ID NO 52 (peptide)
# peptide: Ac-IVLSLD[dV]PIKLK([γGlu-C16 diacid])KILLEQEKQKKQREQAETN[Nva]QILAQV-NH2
# SMILES: CCC[C@H](NC(=O)[C@H](CC(N)=O)NC(=O)[C@@H](NC(=O)[C@H](CCC(=O)O)NC(=O)[C@H](C)NC(=O)[C@H](CCC(N)=O)NC(=O)[C@H](CCC(=O)O)NC(=O)[C@H](CCCNC(=N)N)NC(=O)[C@H](CCC(N)=O)NC(=O)[C@H](CCCCN)NC(=O)[C@H](CCCCN)NC(=O)[C@H](CCC(N)=O)NC(=O)[C@H](CCCCN)NC(=O)[C@H](CCC(=O)O)NC(=O)[C@H](CCC(N)=O)NC(=O)[C@H](CCC(=O)O)NC(=O)[C@H](CC(C)C)NC(=O)[C@H](CC(C)C)NC(=O)[C@@H](NC(=O)[C@H](CCCCN)NC(=O)[C@H](CCCCNC(=O)CC[C@H](NC(=O)CCCCCCCCCCCCCCC(=O)O)C(=O)O)NC(=O)[C@H](CC(C)C)NC(=O)[C@H](CCCCN)NC(=O)[C@@H](NC(=O)[C@@H]1CCCN1C(=O)[C@H](NC(=O)[C@H](CC(=O)O)NC(=O)[C@H](CC(C)C)NC(=O)[C@H](CO)NC(=O)[C@H](CC(C)C)NC(=O)[C@@H](NC(=O)[C@@H](NC(C)=O)[C@@H](C)CC)C(C)C)C(C)C)[C@@H](C)CC)[C@@H](C)CC)[C@@H](C)O)C(=O)N[C@@H](CCC(N)=O)C(=O)N[C@H](C(=O)N[C@@H](CC(C)C)C(=O)N[C@@H](C)C(=O)N[C@@H](CCC(N)=O)C(=O)N[C@H](C(N)=O)C(C)C)[C@@H](C)CC
# B6: SEQ ID NO 51 (peptide)
# peptide: Ac-IVLSLD[dV]PIKLK([γGlu-C16 diacid])KILLEQEKQKKQREQAETN[Abu]QILAQV-NH2
# SMILES: CC[C@H](NC(=O)[C@H](CC(N)=O)NC(=O)[C@@H](NC(=O)[C@H](CCC(=O)O)NC(=O)[C@H](C)NC(=O)[C@H](CCC(N)=O)NC(=O)[C@H](CCC(=O)O)NC(=O)[C@H](CCCNC(=N)N)NC(=O)[C@H](CCC(N)=O)NC(=O)[C@H](CCCCN)NC(=O)[C@H](CCCCN)NC(=O)[C@H](CCC(N)=O)NC(=O)[C@H](CCCCN)NC(=O)[C@H](CCC(=O)O)NC(=O)[C@H](CCC(N)=O)NC(=O)[C@H](CCC(=O)O)NC(=O)[C@H](CC(C)C)NC(=O)[C@H](CC(C)C)NC(=O)[C@@H](NC(=O)[C@H](CCCCN)NC(=O)[C@H](CCCCNC(=O)CC[C@H](NC(=O)CCCCCCCCCCCCCCC(=O)O)C(=O)O)NC(=O)[C@H](CC(C)C)NC(=O)[C@H](CCCCN)NC(=O)[C@@H](NC(=O)[C@@H]1CCCN1C(=O)[C@H](NC(=O)[C@H](CC(=O)O)NC(=O)[C@H](CC(C)C)NC(=O)[C@H](CO)NC(=O)[C@H](CC(C)C)NC(=O)[C@@H](NC(=O)[C@@H](NC(C)=O)[C@@H](C)CC)C(C)C)C(C)C)[C@@H](C)CC)[C@@H](C)CC)[C@@H](C)O)C(=O)N[C@@H](CCC(N)=O)C(=O)N[C@H](C(=O)N[C@@H](CC(C)C)C(=O)N[C@@H](C)C(=O)N[C@@H](CCC(N)=O)C(=O)N[C@H](C(N)=O)C(C)C)[C@@H](C)CC
# Legend:
# CRF1R receptor = target: T1, CRF1R receptor (UniProt P34998 24-415, limits assumed); test: cell-based or functional assay
# T1 sequence (looked up): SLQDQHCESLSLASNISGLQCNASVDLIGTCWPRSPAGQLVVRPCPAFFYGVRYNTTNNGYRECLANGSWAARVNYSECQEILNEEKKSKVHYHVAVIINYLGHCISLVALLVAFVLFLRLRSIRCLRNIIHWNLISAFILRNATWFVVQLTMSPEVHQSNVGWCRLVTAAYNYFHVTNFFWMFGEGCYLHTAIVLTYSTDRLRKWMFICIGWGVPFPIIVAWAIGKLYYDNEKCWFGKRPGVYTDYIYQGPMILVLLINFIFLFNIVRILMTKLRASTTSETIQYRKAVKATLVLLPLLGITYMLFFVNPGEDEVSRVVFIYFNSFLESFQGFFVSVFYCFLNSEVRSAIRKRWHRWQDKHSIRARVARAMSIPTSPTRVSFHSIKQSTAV
# [1] = target: human corticotropin-releasing factor 2a (CRF2a receptor) (human), Q13324; test: cell-based or functional assay
# Sequence of human corticotropin-releasing factor 2a (CRF2a receptor) (human), Q13324 (Q13324 20-411): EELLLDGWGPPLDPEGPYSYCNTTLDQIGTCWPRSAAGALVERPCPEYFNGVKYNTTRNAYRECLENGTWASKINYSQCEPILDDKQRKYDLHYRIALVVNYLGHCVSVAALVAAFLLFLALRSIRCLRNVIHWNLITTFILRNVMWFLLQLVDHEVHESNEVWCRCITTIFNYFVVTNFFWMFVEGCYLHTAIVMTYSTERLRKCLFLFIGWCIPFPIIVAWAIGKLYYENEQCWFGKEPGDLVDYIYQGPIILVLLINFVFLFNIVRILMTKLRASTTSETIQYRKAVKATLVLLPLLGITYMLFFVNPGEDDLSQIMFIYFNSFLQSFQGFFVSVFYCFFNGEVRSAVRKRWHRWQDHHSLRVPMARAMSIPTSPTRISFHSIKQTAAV
Binder,Emax (% I) (CRF1R receptor) [%],EC50 [nM] (cAMP) [1]
B1,5,0.42
Ac-IVLSLD[dV]PIKLK([AEEA-AEEA-γGlu-C18 diacid])KILLEQEKQKKQREQAETN[αMeK]QILAQV-NH2 (not fully specified) [SEQ ID NO 106],6,0.35
B2,0,1.43
B3,4,1.14
B4,7,1.85
B5,7,0.17
B6,9,0.12
